Consider one molecule from publication PMC12443476 (eLife, 2025).

The target of the test is T1, biotinylated Tom70 (109-600) with N-terminal AVI tag (human, UniProt O94826 109-600, biotin (AVI tag, by co-expressed BirA)).
T1 construct: also called biotin-Tom70; immobilized Tom70
T1 sequence: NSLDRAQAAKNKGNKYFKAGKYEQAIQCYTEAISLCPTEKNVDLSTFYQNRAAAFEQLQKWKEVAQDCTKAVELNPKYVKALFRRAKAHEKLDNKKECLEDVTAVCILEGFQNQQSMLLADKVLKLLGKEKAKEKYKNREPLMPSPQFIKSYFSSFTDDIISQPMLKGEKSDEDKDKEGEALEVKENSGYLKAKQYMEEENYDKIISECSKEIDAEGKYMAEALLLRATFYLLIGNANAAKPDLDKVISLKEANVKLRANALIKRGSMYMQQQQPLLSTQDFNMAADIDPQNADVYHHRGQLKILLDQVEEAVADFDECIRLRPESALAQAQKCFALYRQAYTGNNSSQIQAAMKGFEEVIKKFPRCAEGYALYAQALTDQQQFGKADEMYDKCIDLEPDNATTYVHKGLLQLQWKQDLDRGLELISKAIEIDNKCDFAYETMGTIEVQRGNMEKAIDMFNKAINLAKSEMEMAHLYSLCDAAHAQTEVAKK
Nature of the test: SPR. Particulars: both partners purified.

With IILRLGSPLSLNMARKALNSLEDKAFQ [Orf9b T60A peptide], the binding result was “binds”.
